Publication PMC12068309, “AHCYL1 mediates the tumor-promoting effect of PREX2 in non-small cell lung carcinoma” (Theranostics, 2025)

Molecular target: T1, purified Flag-PREX2 protein (UniProt Q70Z35 1-1606)
T1 construct: PREX2, full length (183 kD); it may be the same construct; also called purified PREX2 protein; purified full-length PREX2; source: recombinant, purified (as described in Supplementary materials and methods)
Assay: pull-down; 25 µL AHCYL1-binding glutathione magnetic beads with 250 ng purified Flag-PREX2, on ice 1 h; washed with 50 mM Tris-HCl pH 7.4, 300 mM NaCl, 0.5% NP40; detected by Flag antibody
Settings: both partners purified

T1 sequence (Q70Z35 whole entry): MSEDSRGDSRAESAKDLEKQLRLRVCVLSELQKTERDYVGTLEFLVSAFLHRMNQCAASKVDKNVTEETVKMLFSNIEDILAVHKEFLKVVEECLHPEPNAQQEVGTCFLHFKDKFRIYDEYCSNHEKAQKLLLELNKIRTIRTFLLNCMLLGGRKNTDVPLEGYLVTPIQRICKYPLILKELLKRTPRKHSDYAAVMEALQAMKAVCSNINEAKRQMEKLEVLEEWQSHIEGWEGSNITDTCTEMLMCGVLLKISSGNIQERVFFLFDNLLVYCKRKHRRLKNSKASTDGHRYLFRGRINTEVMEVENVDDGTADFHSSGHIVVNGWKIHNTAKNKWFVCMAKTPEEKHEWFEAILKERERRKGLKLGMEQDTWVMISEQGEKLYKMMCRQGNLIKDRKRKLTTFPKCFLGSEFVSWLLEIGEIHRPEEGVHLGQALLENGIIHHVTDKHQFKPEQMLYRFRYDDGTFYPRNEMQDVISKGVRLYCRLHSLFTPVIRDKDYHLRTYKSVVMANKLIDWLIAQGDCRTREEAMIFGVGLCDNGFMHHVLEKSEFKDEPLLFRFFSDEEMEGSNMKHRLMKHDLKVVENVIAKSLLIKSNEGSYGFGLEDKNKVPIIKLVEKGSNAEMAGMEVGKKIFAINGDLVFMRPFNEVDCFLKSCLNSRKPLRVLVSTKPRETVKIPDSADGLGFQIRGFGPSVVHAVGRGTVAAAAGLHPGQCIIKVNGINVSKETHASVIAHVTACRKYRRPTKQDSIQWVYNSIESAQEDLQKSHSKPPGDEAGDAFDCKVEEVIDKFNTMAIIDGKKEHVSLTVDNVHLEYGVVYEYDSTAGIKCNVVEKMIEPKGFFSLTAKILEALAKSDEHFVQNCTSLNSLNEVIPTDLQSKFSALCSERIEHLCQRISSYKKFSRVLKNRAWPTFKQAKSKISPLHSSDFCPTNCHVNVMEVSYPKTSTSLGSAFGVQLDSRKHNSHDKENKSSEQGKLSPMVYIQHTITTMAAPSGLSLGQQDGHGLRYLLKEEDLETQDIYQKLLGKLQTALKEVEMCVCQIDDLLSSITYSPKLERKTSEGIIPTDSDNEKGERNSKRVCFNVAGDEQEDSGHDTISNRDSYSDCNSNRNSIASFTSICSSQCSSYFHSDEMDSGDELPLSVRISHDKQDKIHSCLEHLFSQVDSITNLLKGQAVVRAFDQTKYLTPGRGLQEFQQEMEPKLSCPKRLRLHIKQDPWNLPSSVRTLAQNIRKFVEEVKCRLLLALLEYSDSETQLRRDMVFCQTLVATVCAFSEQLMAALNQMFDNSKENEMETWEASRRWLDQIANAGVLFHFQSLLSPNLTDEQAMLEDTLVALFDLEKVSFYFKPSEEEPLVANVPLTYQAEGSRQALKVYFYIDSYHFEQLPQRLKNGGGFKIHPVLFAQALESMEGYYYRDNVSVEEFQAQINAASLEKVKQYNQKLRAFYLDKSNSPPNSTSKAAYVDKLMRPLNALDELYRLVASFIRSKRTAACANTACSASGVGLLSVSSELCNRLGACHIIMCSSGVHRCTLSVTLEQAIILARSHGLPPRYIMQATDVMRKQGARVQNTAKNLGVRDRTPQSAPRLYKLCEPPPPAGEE

binding result: binds
B1: GST-AHCYL1 recombinant protein (natural protein, UniProt O43865 1-530, looked up)
chain: MSMPDAMPLPGVGEELKQAKEIEDAEKYSFMATVTKAPKKQIQFADDMQEFTKFPTKTGRRSLSRSISQSSTDSYSSAASYTDSSDDEVSPREKQQTNSKGSSNFCVKNIKQAEFGRREIEIAEQDMSALISLRKRAQGEKPLAGAKIVGCTHITAQTAVLIETLCALGAQCRWSACNIYSTQNEVAAALAEAGVAVFAWKGESEDDFWWCIDRCVNMDGWQANMILDDGGDLTHWVYKKYPNVFKKIRGIVEESVTGVHRLYQLSKAGKLCVPAMNVNDSVTKQKFDNLYCCRESILDGLKRTTDVMFGGKQVVVCGYGEVGKGCCAALKALGAIVYITEIDPICALQACMDGFRVVKLNEVIRQVDVVITCTGNKNVVTREHLDRMKNSCIVCNMGHSNTEIDVTSLRTPELTWERVRSQVDHVIWPDGKRVVLLAEGRLLNLSCSTVPTFVLSITATTQALALIELYNAPEGRYKQDVYLLPKKMDEYVASLHLPSFDAHLTELTDDQAKYLGLNKNGPFKPNYYRY
notes: AHCYL1 (IRBIT); Construct details are in the supplementary materials and methods; also called AHCYL1 conjugated-GST beads; source: recombinant, purified (as described in Supplementary materials and methods)
